According to a protein production outcome set (Wang et al. 2014):

Test: label from the status in PepcDB records

Row | Sequence | protein production
1 | MKNKLAITKLSNNVFLLLCTALTFTPIANAAEVIELTIAEPSALKPDFIGYNANMMSAMSTNPWDRTELTQLYKNTGTSIIRYPGGTIANNFDWPTGNQIKINSSGEESLGSYDYKISNFKTGYQNAGFEPIFVVNLLTRDLQHTLDGLADATAKSLPINRIELGNEFFLKDEAYVDMFPSGQDYVSKADIWTDAIKAIYPHVEIAYVSTMKKDPRSLEWNEKISQCTKCDAIIIHTYTRSELNPVLPADKSTSYFGTNEEQNQQWQQFITNSGVDIMLAQPFEAWHGYTSLNNLPSDKKIWITEFNMKDGTGPTRNTWAHALFNANQLQSFLTDGRVEIALLHNLITGAKSGSHYLGNTFSGLTIDHGQGDLSSQKYSLSAGGIAMRAFGSVLKGMDTIAKINLSDTPTVSPTGYADYDAIYGWQGSNSANEEQRYLLINTSSVSYTVNTENLTTSNKSVRQYWTKPQTFIHSEEVLSGGMVNSLPTLLKLPAYSITVIGETAIELPSNYQQTLTLTATDDHFTKEANPNGKGQPTASQININNSEGDQSRPHIKFNTNQVKGSIESVTLKVYSESVTDTVSAHKINNEWDEYELTWNTMPTLGEFINSASADKNAWLEINVTASLLKSDSLLSFALTNSLTSLNKFSSKEGNKAPELIITTSNAVINVADTNITKDDANILQYYSNSLADAVSDDDNDKLSFYKTSGPSWLMLWSNGKIEGTPTADDIGENTFAIKVSDNTGQASATTALNLTINVISDAPTNAAPVWNNIQNILQQATENISYNSNILALATDADNDALIFAKVSGPDWLSLSDAGEVTGTATNSDIGENNVIVSVTDGTNNSNEFINNELIITVTAEIAVEPINNAPTWSNENIALELATQEQAYTNNIMTFTNDLDGDILVFAKVSGPQWLTLSEAGDITGTPSGNDIGENIFILSVTDSDSDTAQVINNTFTIIVSTKPEPEPTPKTEEDNSEGGSISFSLLLLCFLRVFTMRNKF | failed
2 | MKNKQSKSLLIKSMALTGLFTISACANEELADTLLTNTNIYGHNNATSLAIKDGKIVYIGDEQNAMNHVSNKTQVIDLKGGYLLPGFVDNHNHVFEAASEIGSDCLLDEDKDINGYIRSLRACKEELEEGEWLLGYGHELSQLMQDNDTSPLAILDEIFPNNPVIIMEQTSHSMWVNSLALAEAGITIHSKEPQGGKILKDKTTGKLLGILLDNAGDLLMEQAWKNQPNLAEANYQGLLNGLAQASKHGITTIGDGRLYWKRGWLETWLTAEKNQALTARVSLRPWVYPADEANEQLAFFKKIKSNDKQRLIQINQVKIYSDGIIINGTASTLDPYDWSYTPQIPHGLEYIPATKMAWWLSELNKIGYGAHIHAIGDAGVRNTLNAIETLRAQGATTAYSMTHLEMVSAQDIKRFAPLRVDADFQLGSDYIAEQDHDWAIPFIGKQRAHALLPINAILNTGANVTLSSDWNVNDINPLVGIANAVYLKNMGIADIHQAIAAYTINPAQALGLDDITGTLEVGKSADIVMLERDITQSTPKQIANTRVLMTWLEGEVVYDEQTE | failed
3 | MKNLFLTSSFKDVVPLFTEFESNLQGKTVTFIPTASTVEEVTFYVEAGKKALESLGLLVEELDIATESLGEITTKLRKNDFIYVTGGNTFFLLQELKRTGADKLILEEIAAGKLYIGESAGAVITSPNIAYIQTMDSTKKAVNLTNYDALNLVDFSTLPHYNNTPFKEITQKIVTEYAGKSQIYPISNHEAIFIRGKEVITKRLS | failed
4 | MKNLIFIATTFITTISLTNIAQAANQEHIRQLLATKQCQNCDLSGAGLVMADLTGANLSGANLAGANLSRANLSGADLRGANLSGAGLFGVNLSEAKLGGANLAGADLRSTFLSNAEFTGAYLQGTNFQGALGIPLQIATPDEFYALGVAEAQKGNQQQAINYFNQAIASKPEYAGAYLARGIARYQLFDRQGAAQDAQTAEKLFTSQDNATGIQTAQAFIKELQTPYTEKLSAGKPSFFDFLGSLGSVLLQFLPF | failed
5 | MKNLKKKLLKLVKIFVIIFVCLAAFFVYIFIEPYWINEKTTTISDSDVPQNFEGKKIVFISDIHHGPYFERERVADLVRKVNELEPDIIILGGDYVSGDVGYIGACFEELSRLKADMGIFGVTGNHDEWTDYNLTVKCMENAGITVLSNRAEWLEIGDDKIKIAGVDWSTDWYFNSEPYVDPLIKDAEENDFVILVSHTPDLAEELTTDKVDLVLSGHTHGGQITFFGLWAPYVPSFYGQKYRTGIVKTDKTMALVSNGVGNTFLPIRFFARPQINIIILDHP | failed
6 | MKNMDEERKYGLYSLIIGLLCVIGIVMLNGLICYVLYIIAVPSLLYGIGAFIIPKTRRKDAGKLPFRGY | failed
7 | MKNRETDSNVVTLYVTRHGKTILNTNHRAQGWADSPLVEKGVEVATNLGTGLKDIHFMNAYSSDSGRAIETANLVLKYSEQSKLKLEQRKKLRELNFGIFEGEKLDNMWDAVGKAAGVTSPEELLKFSIQEVIDLIRAADPTKQAEDWELFSTRIKAEIDKISEEAAKDGGGNVLVVVHGLLITTLIEMLDSSKTKLGVENASVTKIVYQDGIYTVESVGDMSYVAKGKESVEI | not failed
8 | MKNSFFSKFTPKEPKFFPLLKQLSDVLSASSVLLVESMEHDLPTERADYYKQIKDMEREGDRLTHLIFDELSTTFITPFDREDIHDLASCMDDVIDGINSSAKRIVIYNPRPISESGKELSRLIHEEAINIGKAMDELETFRKNPKPLRDYCTQLHDIENQADDVYELFITKLFEEEKDCIELIKIKEIMHELEKTTDAAEHVGKILKNLIVKYS | not failed
9 | MKNTIDVENDSIIAFTGGRIFTMDSEQKHAETVVINGGCIAAVGDRSILKSFPNAKIRDLKGRVLLPAFIDSHNHLSSFGCFFPTWANLIGLTEKGSVLEEIQLQTRKKPGKGWIVGFGWFDAKIGGVDLTKNDLDEISSDRPVLLIQATFHQSVVNSRALELVGITRSTPDPRCGIILRESDGMPTGVLVECAQVPVFRLAMEADTGTLANLIEAHAKELLKFGITAVHDPGVTPAAEAAYQKLHSEERLPVSVLMMPHGETILDNQLGYRLHGPVTGVGDERLRVGPVKLFADGATEETVAFSLKIGGQTINSGNYRDDFEEMLFAATEKGFRVCVHSFGNVTTDAVLTAFENAVTRAPAGFEMRPRLEHVTLISTSQIKRLAAMGGCACIQPQFLSRAQNTKQVVLDDGKWYAYGDLVKGGVTVASGSDNPGGFMDARDPIEGSVMGSTMSDGAGNAIFPDQVLPFEQWLWMYTAGGAYAGGQEKERGMLKKGMVADLVVLEGNLDPKNPPVVAETWVAGKQVYDHRV | failed
10 | MKNYKIILTALCFICIFSCSKTETKKSIKYKDGVYKSFANIKDDWGGTAEVEIKIEEGKIVECTFLSYEKNGNLKGPEYGKVDGVIKNMGLYKIAQASVLKAAEYGQKLIETQNIDDVDVIAGASISYKLFKDAVENALQGAMQNAKENLEHHHHHH | failed
11 | MKNYTLISPCFFGMEKMLAREITNLGYEIIKTEDGRITYKTDEFGIAKSNMWLRCAERVHLKIAEFEAKSFDELFENTKRINWSRYIPYGAQFPISKASSIKSKLYSTPDVQAIVKKAIVESLKKSYLEDGLLKEDKEKYPIFVFIHKDKVTISIDTTGDALHKRGYREKANKAPIRETLAAGLIYLTPWKAGRVLVDPMCGSGTILIEAAMIGINMAPGLNREFISEKWRTLDKKIWWDVRKDAFNKIDNESKFKIYGYDIDEESIDIARENAEIAGVDEYIEFNVGDATQFKSEDEFGFIITNPPYGERLEDKDSVKQLYKELGYAFRKLKNWSYYLITSYEDFEYEFGQKADKKRKLYNGMLKTNFFQYPGPKPPRNNK | not failed
12 | MKPENFTSEKIPASLDEVSLNYFAHDGNKREYLTYIPSGYSHTIEAPVILNFHGFGGTASGQLALSDWRDLAEKHGIILIYPQGLELQKGGSHWNPDPVSSDSKSISDDLGFVRRLLKRISKNYSIDKSRVYATGYSNGAGMAYGLAHHMPDLIAGIAPVSGLMNDEYLSTTSGGSPVGLISFNGEEDWVRPVNGINGYLASVADISSHWARENSSTQSIAEQFAQANGDRIERTSYSRDDGLTTVEQYLVDRGGHEWFDLDIEGKDLNQLAWQFLSRLRKQD | failed
13 | MKPIDEELLLEQLIDNVKNCKDLEAAKALLFEICGHDAILEKAVDYCIFCHEGQFRKSGEPYAVHPILVATLVGFLSENKSNILAALLHDVIEDTNCTEEELREQFGSEVLKLVLGLTKIIEIREDNLISSKSKKSLTKSALTFRNMLLASIEDVGVLIVKLCDRLHNMLTLDILREDKQKRISEETLVVYAPIAHRLGISSIKNYLEDLSFKYLMPDEYKLIDNYINSNNQEMQLGLNEFISKIELLFLSNGFRQGSFEIQKRIKHSYSIYLKMQRKGIGIEEVLDLLGVRILVEKVSDCYLALGILHTHFNPLVSRFKDYIALPKQNGYQTIHTTLFDAKSIIEAQIRTFDMHKIAEFGIAAHWKYKEDGSVVAPRLDWLTDISMQSINNLENAEDYNAIELYEYAKDSLYVEDVAVYSPKGEIFTLPRGATVLDFAYEVHTKVGLHAKSAYVNRIKVPLLTELKNGDIVRVVTSNDKFYRCSWIDSVKTGKAKASIREFCKQKIREINLASSINMLSFIFGVDKNRIETWIEKENLVRRIRQVATDSAYLKDIVNGLKKYAKKSYWFDKYEIKEQKIGNFTLYCNHKIANVDFDFCCHPKRGDAVLAFVKGGNAIVHHKLCDRADKMIDNNQDMVFIKWDSNIPKSYKLIFSLENKKGVLAEFLAFLAKMQINLLTINLSSDLNSAVDYFEITMEIPDNINPDSVKDRLKSRCKILDFTSLNDAYKES | failed
14 | MKPIHVGLLGLGTVGGGTLTVLRRNAEEITRRAGREIRVVRAAVRNLDKAEALAGGLPLTTNPFDVVDDPEIDIVVELIGGLEPARELVMQAIANGKHVVTANKHLVAKYGNEIFAAAQAKGVMVTFEAAVAGGIPIIKALREGLTANRIEWLAGIINGTSNFILSEMRDKGAAFDDVLKEAQRLGYAEADPTFDIEGIDAAHKLTILSAIAFGIPMQFERAYTEGISQLTREDVRYAEELGYRIKLLGIARRAENGIELRVHPTLIPERRLIANVDGAMNAVLVKGDAVGPTLYYGAGAGSEPTASAVVADLVDVTRLHTADPHHRVPHLAFQPDQLADTPILPMEAVRTAYYLRLRAFDRPGVLADITRILADSSISIDAMVQKEPAEGEEQVDIILLTHVTLEKNVNAAIAKIEALDAVAGKVMRIRLEDLGAK | not failed
15 | MKPLHLKLNNFGPFLKEEIDFSKIDNNELFLISGKTGSGKTMIFDAMTYALFGKASTEQREENDLRSHFADGKQPMSVTFEFQLNHRIYKVHRQGPYIKEGNTTKTNAKFDVFEMVDGKYEIRESKVISGTQFIIELLGVNADQFRQLFILPQGEFKRFLISNSREKQGILRTLFDSEKFEAIREILKEELKKEKAQIENRYQQIDLLWQEIESFDDDKIKGLLELAT | failed
16 | MKPLKEVVGAYLALSDAQRQLVAGEYDEAAANCRRAMEISHTMPPEEAFDHAGFDAFCHAGLAEALAGLRSFDEALHSADKALHYFNRRGELNQDEGKLWISAVYSRALALDGLGRGAEAMPEFKKVVEMIEERKGETPGKERMMEVAIDRIAQLGAS | not failed
17 | MKPSLRIYRYPPPPSQRTPCALTIGNFDGVHLGHQAILARVRQEARARGLVPAVMTFEPHPREYFATLNRRPELAPTRISGLRDKLQALAAAGIEQVAVERFDARLAEMSANAFIEDLLVAGLQTRWLLVGEDFRYGHKRSGDIDLLREAGLAHGFEVCTLADITDRQGHRISSSEVRTALAVGDLDRAAQLLGQPFHISGHVIHGRKLGRELGFPTMNLRVAPRCATRSGIYVVRVLGLQDRPLPAVASLGVRPTVEDRGRVLLEAHLLDESLDAYGKLVRVEFLHKLRDEEKFADLPSLTAAIAQDAQNARAYFAVHGL | failed
18 | MKPSVSITGEQEAHKVAAIFETETDANGVARVLSQETSLDHEQVIVVSPQDQHPGEELEPENQGIWQTLVRSHLWLGIGGAVAGFIVFLILSAIGVGFIAQNGVVAAAVLAALGLILGLLVAGGVTLRPDHTPYVAKAQSALKEGKYVLTVHASSSEQLKEATTVLKNRNVRLVRTI | failed
